In article PMC5974017, “Increased glutarate production by blocking the glutaryl-CoA dehydrogenation pathway and a catabolic pathway involving L-2-hydroxyglutarate” (Nature Communications, 2018):

What was measured:
[1] = biological target: T1, LhgO (Pseudomonas putida, UniProt Q88IT9); assay: oxygen electrode, stimulation of oxidase activity; assay type: biochemical; details: enzyme preincubated with 50 μM FAD 1 h on ice; 5 mM L-2-HG, Tris-HCl pH 7.4, 30 °C
T1 construct: recombinant His-tagged from E. coli BL21(DE3), pETDuet-1; partly lost FAD on purification
T1 sequence (Q88IT9 1-416): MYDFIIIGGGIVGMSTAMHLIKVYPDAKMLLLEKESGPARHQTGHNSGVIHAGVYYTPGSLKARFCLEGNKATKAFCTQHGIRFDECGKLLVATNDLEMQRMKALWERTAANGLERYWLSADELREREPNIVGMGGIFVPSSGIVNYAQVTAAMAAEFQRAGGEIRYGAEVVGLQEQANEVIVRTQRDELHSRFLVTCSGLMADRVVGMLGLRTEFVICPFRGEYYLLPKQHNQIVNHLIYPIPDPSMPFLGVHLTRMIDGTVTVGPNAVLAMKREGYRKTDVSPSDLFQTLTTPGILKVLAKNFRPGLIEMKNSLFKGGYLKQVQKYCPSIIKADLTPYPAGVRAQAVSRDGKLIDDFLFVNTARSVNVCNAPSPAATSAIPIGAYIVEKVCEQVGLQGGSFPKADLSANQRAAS

[2] = biological target: T2, LhgO homolog from Klebsiella pneumoniae ATCC25955 (Klebsiella pneumoniae, UniProt A6T539); assay: L-2-HG oxidation to 2-KG; assay type: biochemical
T2 construct: gene ygaF; recombinant from E. coli BL21(DE3), pETDuet-1, HisTrap purified

[3] = biological target: T1, LhgO; assay: DCPIP reduction at […] nm; product 2-KG by HPLC and LC-MS/MS; assay type: biochemical; details: 50 mM Tris-HCl pH 7.4, 30 °C, 5 mM L-2-HG, 0.1 mM DCPIP
[4] = biological target: T3, YgaF (Escherichia coli, UniProt P37339); assay: L-2-HG oxidation to 2-KG; oxygen electrode; assay type: biochemical; details: 50 mM Tris-HCl pH 7.4, 30 °C, 5 mM L-2-HG
T3 construct: gene lhgD; recombinant from E. coli BL21(DE3), pETDuet-1, HisTrap purified
T3 sequence (P37339 1-422): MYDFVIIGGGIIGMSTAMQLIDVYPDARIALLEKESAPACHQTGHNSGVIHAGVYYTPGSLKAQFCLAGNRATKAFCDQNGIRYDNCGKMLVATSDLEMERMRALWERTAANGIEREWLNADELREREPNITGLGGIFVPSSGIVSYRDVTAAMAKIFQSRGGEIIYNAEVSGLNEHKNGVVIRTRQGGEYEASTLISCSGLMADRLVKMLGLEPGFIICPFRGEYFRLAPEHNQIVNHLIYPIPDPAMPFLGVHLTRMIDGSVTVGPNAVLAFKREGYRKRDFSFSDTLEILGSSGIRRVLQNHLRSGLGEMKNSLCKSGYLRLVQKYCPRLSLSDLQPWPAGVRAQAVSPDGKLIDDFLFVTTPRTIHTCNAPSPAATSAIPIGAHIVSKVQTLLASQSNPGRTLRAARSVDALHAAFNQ

[5] = biological target: T4, CsiD homolog from E. coli K-12 MG1655 (Escherichia coli, UniProt P76621); assay: glutarate hydroxylation by purified homolog; assay type: biochemical; details: co-substrate 2-KG
T4 construct: gene glaH; recombinant from E. coli BL21(DE3), pETDuet-1, HisTrap purified

[6] = biological target: T5, CsiD homolog from Klebsiella pneumoniae ATCC25955 (Klebsiella pneumoniae, UniProt A6T540); assay: glutarate hydroxylation by purified homolog; assay type: biochemical; details: co-substrate 2-KG
T5 construct: recombinant from E. coli BL21(DE3), pETDuet-1, HisTrap purified

[7] = test system: O=C(O)CCC(=O)C(=O)O; assay: Clark-type oxygen electrode, double-reciprocal plot; assay type: biochemical, Pseudomonas putida; details: pH 6.7
Excerpt: (§1) Clark-type oxygen electrode, double-reciprocal plot on CsiD

[8] = test system: O=C(O)CCCC(=O)O; assay: as above; assay type: biochemical, Pseudomonas putida; details: pH 6.7
Excerpt: as §1

[9] = biological target: the molecule itself; assay: SEC; Superdex 200 10/300 GL, eluent buffer C (50 mM sodium phosphate, 150 mM sodium chloride, pH 7.2), flow 0.5 mL min^-1; calibrated with thyroglobulin, ferritin, aldolase, conalbumin, ovalbumin and RNase A; native mass divided by the calculated monomer mass of 38.9 kDa

T2 sequence (A6T539 entry or part of it): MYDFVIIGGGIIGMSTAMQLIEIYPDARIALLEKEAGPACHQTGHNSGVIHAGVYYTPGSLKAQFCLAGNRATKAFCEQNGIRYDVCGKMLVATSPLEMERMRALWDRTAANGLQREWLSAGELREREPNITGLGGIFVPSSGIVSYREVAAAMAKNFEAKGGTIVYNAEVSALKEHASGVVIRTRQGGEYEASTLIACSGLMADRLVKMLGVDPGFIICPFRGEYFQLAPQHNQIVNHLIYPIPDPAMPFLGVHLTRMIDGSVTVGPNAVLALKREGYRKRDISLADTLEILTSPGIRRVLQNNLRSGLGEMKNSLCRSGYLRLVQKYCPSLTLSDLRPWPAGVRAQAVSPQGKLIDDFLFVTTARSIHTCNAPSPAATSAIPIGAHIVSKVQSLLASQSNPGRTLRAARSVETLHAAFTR
T4 sequence (P76621 whole entry): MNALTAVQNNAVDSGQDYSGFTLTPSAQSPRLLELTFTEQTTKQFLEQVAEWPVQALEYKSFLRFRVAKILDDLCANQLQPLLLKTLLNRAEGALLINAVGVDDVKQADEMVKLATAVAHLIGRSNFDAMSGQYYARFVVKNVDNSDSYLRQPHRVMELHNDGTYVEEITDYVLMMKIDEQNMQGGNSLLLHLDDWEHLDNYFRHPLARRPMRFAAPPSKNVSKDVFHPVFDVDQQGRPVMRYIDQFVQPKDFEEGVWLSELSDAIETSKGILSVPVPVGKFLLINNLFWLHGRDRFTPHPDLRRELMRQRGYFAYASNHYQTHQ
T5 sequence (A6T540 entry or part of it): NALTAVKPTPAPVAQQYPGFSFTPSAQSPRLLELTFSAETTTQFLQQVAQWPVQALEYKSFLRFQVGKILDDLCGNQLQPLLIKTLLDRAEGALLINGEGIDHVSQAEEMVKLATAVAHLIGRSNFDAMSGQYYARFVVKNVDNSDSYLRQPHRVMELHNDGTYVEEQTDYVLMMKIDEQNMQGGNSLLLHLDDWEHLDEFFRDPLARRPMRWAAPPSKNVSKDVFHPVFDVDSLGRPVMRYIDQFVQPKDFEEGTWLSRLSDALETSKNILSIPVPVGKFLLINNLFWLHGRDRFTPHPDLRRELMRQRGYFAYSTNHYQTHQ

With `Cc1cc2nc3c(=O)[nH]c(=O)nc-3n(C[C@H](O)[C@H](O)[C@H](O)COP(=O)(O)OP(=O)(O)OC[C@H]3O[C@@H](n4cnc5c(N)ncnc54)[C@H](O)[C@@H]3O)c2cc1C` [FAD] the “oxygen electrode, stimulation of oxidase activity” value [1] was “The oxidase activity of LhgO can be stimulated by FAD”.

In the case of `O=C(O)CC[C@H](O)C(=O)O` [L-2-HG], the “L-2-HG oxidation to 2-KG” value [2] is reported as “the homologs of LhgO can catalyze L-2-HG to produce 2-KG”, the “DCPIP reduction at 600 nm; product 2-KG by HPLC and LC-MS/MS” value [3] is reported as “Robust activity was detected only when L-2-HG was used as the substrate” and the “L-2-HG oxidation to 2-KG; oxygen electrode” value [4] is reported as “the homologs of LhgO can catalyze L-2-HG to produce 2-KG”.

For `O=C(O)CCCC(=O)O` [glutarate], the “glutarate hydroxylation by purified homolog” value [5] was “All three homologs of CsiD can catalyze the hydroxylation of glutarate” and the “glutarate hydroxylation by purified homolog” value [6] was “All three homologs of CsiD can catalyze the hydroxylation of glutarate”.

CsiD (Pseudomonas putida KT2440) showed a Km [7] of 95.33 ± 0.97 µM, a Vmax [7] of 144 µmol/min/mg and a kcat/Km [7] of 7.49e+06 ± 120000 M⁻¹ s⁻¹. It also gave a Km [8] of 145.67 ± 1.53 µM, a Vmax [8] of 264 µmol/min/mg and a kcat/Km [8] of 6.93e+06 ± 30000 M⁻¹ s⁻¹.

B1: CsiD of P. putida KT2440, glutarate hydroxylase (enzyme, Pseudomonas putida KT2440, UniProt Q88IU0 1-325, looked up)
chain: MNAFTQIDELVMPLPLEPQGYTIAPSKQSPRLLELTFARETVEAFVQAVAQWPVQALEYKSFLRFRVGEILDELCQGTLRPVLLNTILDRATGGMLITPIGLDDVSQAEDMVKFTTACAHLIGRSNYDAMSGQFYARFVVVNSDNSDSYLRQPHRVMELHNDGTFVNQITDYVLMLKIDEKNMEGGNSLLLHLDDWEQCEAFFRHPLARREMRWTAPPSKKVAEDVFHSVFDTDAEGRPTMRYIDQFVQPENYEEGIWLNALSESLEGSGKKVSVPVGVGSFLLINNLFWLHGRDRFTPHEGLRRELMRQRGYVAFPKPLYQRGQ
notes: CsiD (glutarate hydroxylase) of Pseudomonas putida KT2440, locus PP2909; gene amplified from genomic DNA with primers csiD-F/csiD-R and cloned EcoRI/HindIII into pETDuet-1; also called PP2909; Fe2+/2-KG-dependent glutarate hydroxylase; source: E. coli BL21(DE3) harboring pETDuet-csiD, purified (HisTrap HP column)
For B1, the “stoichiometry N” value [9] was 8.
